The values below come from the supplement of paper PMC10567573.

The chains are these.
B1: ARL6IP1 (parent)
chain: YLDPSVLSGVSCFVMFLCLADYLV
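Also: lentivirally expressed fusions sorted by FACS into six bins by GFP to DsRed ratio, PSI derived from sequencing read proportions per bin multiplied by bin number.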

Variants of B1 are the subject of the data set. As to the kind of experiment: protein stability index of a GFP-peptide fusion (GPS, HEK-293T) (PSI 1-6); higher = more stable. The conditions noted are these: c terminus: a fixed tail appended.
In the case of YLDPSVLSGVSCFVLFLCLADYLV, the protein stability index is 2.76. Under YLDPSVLSGVSCFVSFLCLADYLV stands 2.79; under YLDPSVLSGVSCFVNFLCLADYLV, 2.88; under YLDPSVLSGVSCFVKFLCLADYLV, 3.66. Under YLDPSVLSGVSCFVFFLCLADYLV stands 2.3; under YLDPSVLSGVSCFVHFLCLADYLV, 3.49.

Take YLDPSVLSGVSCFVIFLCLADYLV: the protein stability index was 4.76. The figure for YLDPSVLSGVSCFVCFLCLADYLV is 3.3. YLDPSVLSGVSCFVRFLCLADYLV: the protein stability index was found to be 2.59. The figure for YLDPSVLSGVSCFVWFLCLADYLV is 2.93; for YLDPSVLSGVSCFVTFLCLADYLV it is 3.04. Turning to YLDPSVLSGVSCFVDFLCLADYLV, the protein stability index turned out to be 2.69. Take YLDPSVLSGVSCFVGFLCLADYLV: the protein stability index came to 4.04. Under YLDPSVLSGVSCFVVFLCLADYLV stands 2.38; under YLDPSVLSGVFCFVMFLCLADYLV, 2.24. Under YLDPSVLSGVPCFVMFLCLADYLV stands 3.52; under YLDPSVLSGVGCFVMFLCLADYLV, 3.42; under YLDPSVLSGVCCFVMFLCLADYLV, 3.23. For the variant YLDPSVLSGVHCFVMFLCLADYLV, the protein stability index worked out at 2.62. Under YLDPSVLSGVECFVMFLCLADYLV stands 4.25; under YLDPSVLSGVVCFVMFLCLADYLV, 4.17. The figure for YLDPSVLSGVYCFVMFLCLADYLV is 3.78. Turning to YLDPSILSGVSCFVMFLCLADYLV, the protein stability index came out at 3.23. Turning to YLDPSTLSGVSCFVMFLCLADYLV, the protein stability index was found to be 2.39. Under YLDPSSLSGVSCFVMFLCLADYLV stands 2.79; under YLDPSCLSGVSCFVMFLCLADYLV, 3.38; under YLDPSALSGVSCFVMFLCLADYLV, 1.44. The figure for YLDPSKLSGVSCFVMFLCLADYLV is 2.51; for YLDPSQLSGVSCFVMFLCLADYLV it is 2.64. Under YLDPSDLSGVSCFVMFLCLADYLV stands 2.36; under YLDPSNLSGVSCFVMFLCLADYLV, 3.08. For YLDPSYLSGVSCFVMFLCLADYLV, the protein stability index was 2.66. The figure for YLDPSRLSGVSCFVMFLCLADYLV is 2.76.

In the case of YLDPSVLSGVSVFVMFLCLADYLV, the protein stability index was found to be 3.66. The figure for YLDPSVLSGVSTFVMFLCLADYLV is 2.24. Under YLDPSVLSGVSPFVMFLCLADYLV stands 3.54; under YLDPSVLSGVSDFVMFLCLADYLV, 3.35; under YLDPSVLSGVSQFVMFLCLADYLV, 4.12. The figure for YLDPSVLSGVSAFVMFLCLADYLV is 3.07; for YLDPSVLSGVSFFVMFLCLADYLV it is 2.47. YLDPSVLSGVSLFVMFLCLADYLV: the protein stability index stood at 2.45. The figure for YLDPSVLSGVSMFVMFLCLADYLV is 2.56; for YLDPSVLSGVSWFVMFLCLADYLV it is 2.26; for YLDPSVLSGVSYFVMFLCLADYLV it is 2.47. Consider YLDPSVLSGVSSFVMFLCLADYLV, for which the protein stability index came to 1.48.

With YLDPSVLSGVSGFVMFLCLADYLV, the protein stability index was determined as 3.53. Under YLDPSVLSEVSCFVMFLCLADYLV stands 2.77. YLDPSVLSNVSCFVMFLCLADYLV: the protein stability index stood at 4.26. Under YLDPSVLSQVSCFVMFLCLADYLV stands 3.72. The figure for YLDPSVLSHVSCFVMFLCLADYLV is 3.27. The figure for YLDPSVLSAVSCFVMFLCLADYLV is 3.74; for YLDPSVLSPVSCFVMFLCLADYLV it is 2.66; for YLDPSVLSKVSCFVMFLCLADYLV it is 2.49. Regarding YLDPSVLSRVSCFVMFLCLADYLV, the protein stability index amounted to 2.5. The figure for YLDPSVLSYVSCFVMFLCLADYLV is 2.81; for YLDPSVLSFVSCFVMFLCLADYLV it is 3.27. Under YLDPSVLSLVSCFVMFLCLADYLV stands 3.4. The figure for YLDPSVLSTVSCFVMFLCLADYLV is 3.03; for YLDPSVLSSVSCFVMFLCLADYLV it is 2.12.

In the case of YLDPSVLSVVSCFVMFLCLADYLV, the protein stability index is 3.3. YLDPSVLSGVSCFVMFTCLADYLV: the protein stability index came out at 3.26. Under YLDPSVLSGVSCFVMFWCLADYLV stands 3.18; under YLDPSVLSGVSCFVMFKCLADYLV, 3.75.

Regarding YLDPSVLSGVSCFVMFFCLADYLV, the protein stability index came out at 2.82. Under YLDPSVLSGVSCFVMFHCLADYLV stands 2.4; under YLDPSVLSGVSCFVMFRCLADYLV, 2.54; under YLDPSVLSGVSCFVMFMCLADYLV, 4.66.

Turning to YLDPSVLSGVSCFVMFVCLADYLV, the protein stability index is 2.2. The figure for YLDPSVLSGVSCFVMFGCLADYLV is 4.55.

With YLDPSVLSGVSCFVMFACLADYLV, the protein stability index came out at 2.34. In the case of YLDPSVLSGVSCFVMFDCLADYLV, the protein stability index came out at 2.49. As for YLDPSVLSGVSCFVMFSCLADYLV, the protein stability index came out at 1.35.

For YLDPSVQSGVSCFVMFLCLADYLV, the protein stability index worked out at 4.

YLDPSVYSGVSCFVMFLCLADYLV: the protein stability index amounted to 2.89.

Regarding YLDPSVTSGVSCFVMFLCLADYLV, the protein stability index amounted to 2.8. Regarding YLDPSVCSGVSCFVMFLCLADYLV, the protein stability index was found to be 1.88. The figure for YLDPSVNSGVSCFVMFLCLADYLV is 2.74; for YLDPSVMSGVSCFVMFLCLADYLV it is 2.98. Under YLDPSVHSGVSCFVMFLCLADYLV stands 3.82; under YLDPSVASGVSCFVMFLCLADYLV, 3.11. For YLDPSVPSGVSCFVMFLCLADYLV, the protein stability index amounted to 2.4. The figure for YLDPSVVSGVSCFVMFLCLADYLV is 3.69. Under YLDPSVSSGVSCFVMFLCLADYLV stands 3.62.

Consider YLDPSVLGGVSCFVMFLCLADYLV, for which the protein stability index worked out at 3.79. Regarding YLDPSVLNGVSCFVMFLCLADYLV, the protein stability index amounted to 3.35.

With YLDPSVLVGVSCFVMFLCLADYLV, the protein stability index was determined as 3.82. As to YLDPSVLIGVSCFVMFLCLADYLV, the protein stability index is 2.96. Under YLDPSVLTGVSCFVMFLCLADYLV stands 2.79; under YLDPSVLLGVSCFVMFLCLADYLV, 3.77.

On to YLDPSVLHGVSCFVMFLCLADYLV, for which the protein stability index was 3.58.

Take YLDPSVLMGVSCFVMFLCLADYLV: the protein stability index was determined as 2.26. Under YLDPSVLRGVSCFVMFLCLADYLV stands 2.95. In the case of YLDPSVLCGVSCFVMFLCLADYLV, the protein stability index came out at 3.59. Under YLDPSVLFGVSCFVMFLCLADYLV stands 3.22.
